Paper doi:10.1101/2025.04.16.649111, “Nanobinders for Synaptotagmin 1 enable the analysis of synaptic vesicle dynamics in rodent and human models” (bioRxiv, 2025)

Assays:
Details in all cases: one partner purified
[1] = molecular target: T1, endogenous Synaptotagmin 1 of mouse brain and mouse neurons (mouse (endogenous in brain and primary …, UniProt P46096)); assay: co-IP; immunoprecipitation: GFP-tagged nanobody pre-loaded on GFP Selector beads, incubated 1 h at 4 °C with pre-cleared lysate of WT or Syt1 KO mouse brain; blot with Syt1 cytoplasmic antibody
T1 construct: Synaptotagmin 1, mouse, endogenous whole protein (in brain extract for the immunoprecipitation, on living neurons for the uptake); also called endogenous Syt1; Syt1; source: endogenous, WT mouse brain lysate; endogenous, mouse primary neurons

[2] = molecular target: T2, endogenous human Synaptotagmin 1 in human iPSC-derived hypothalamic-like neurons (human, UniProt P21579); assay: immunostaining of cells or tissue; live uptake in 80-day old human iPSC-derived hypothalamic neurons: surface pool blocked with 4.85 µM unlabeled nanobody, then 5.5 µM pHluorin-labelled nanobody with 30 mM KCl or 1 µM TTX, 20 min at 37 °C; fixed, anti-GFP and anti-Syt1
T2 construct: Synaptotagmin 1, human, endogenous; also called human Syt1; source: endogenous, human iPSC-derived hypothalamic neurons (living cells)

[3] = molecular target: T3, endogenous Synaptotagmin 1 of primary hippocampal neurons (rat) (rat (endogenous in hippocampal neurons), UniProt P21707); assay: proximity labelling; NbLumSyt1-APEX2 taken up live by primary neurons (30 min with biotin-phenol), 1 mM H2O2 for 30 s; streptavidin bead enrichment, LC-MS/MS; controls NbALFA-APEX2 or no nanobody
T3 construct: Synaptotagmin 1, endogenous in primary hippocampal neurons; the spectra were searched against the Rattus norvegicus proteome (UP000234681) and neurons were in most cases from Wistar pups; also called Syt1; Syt1-lum; source: endogenous, primary hippocampal neurons (living cells)
T3 sequence (P21707 whole entry): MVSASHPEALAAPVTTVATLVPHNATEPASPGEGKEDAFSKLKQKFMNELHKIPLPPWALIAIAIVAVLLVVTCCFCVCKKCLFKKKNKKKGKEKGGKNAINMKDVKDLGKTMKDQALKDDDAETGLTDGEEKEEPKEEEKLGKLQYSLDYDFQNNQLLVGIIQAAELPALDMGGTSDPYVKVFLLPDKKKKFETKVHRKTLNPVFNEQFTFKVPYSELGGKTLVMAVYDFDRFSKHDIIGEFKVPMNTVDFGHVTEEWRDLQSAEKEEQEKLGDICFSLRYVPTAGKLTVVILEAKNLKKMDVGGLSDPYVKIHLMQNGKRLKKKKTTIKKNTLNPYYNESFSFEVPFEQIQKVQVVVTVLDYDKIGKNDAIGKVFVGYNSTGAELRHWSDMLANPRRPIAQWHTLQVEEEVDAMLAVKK

T1 sequence (P46096 whole entry): as the sequence (P21707 whole entry) above, with H6R counted along it
T2 sequence (P21579 whole entry): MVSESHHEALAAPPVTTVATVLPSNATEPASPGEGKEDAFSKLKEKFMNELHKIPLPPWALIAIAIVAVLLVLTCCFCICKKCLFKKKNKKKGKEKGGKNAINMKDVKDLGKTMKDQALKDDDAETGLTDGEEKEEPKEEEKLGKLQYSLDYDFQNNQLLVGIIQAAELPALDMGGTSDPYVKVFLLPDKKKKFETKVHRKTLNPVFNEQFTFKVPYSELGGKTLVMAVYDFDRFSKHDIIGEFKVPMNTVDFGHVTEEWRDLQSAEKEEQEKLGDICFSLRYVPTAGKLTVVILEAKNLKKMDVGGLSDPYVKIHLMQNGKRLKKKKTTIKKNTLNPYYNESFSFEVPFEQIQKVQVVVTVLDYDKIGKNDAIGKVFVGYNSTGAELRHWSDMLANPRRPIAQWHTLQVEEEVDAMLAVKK

B1: NbLumSyt1 fused to a GFP-tag (VHH)
VHH: EVQLVESGGGLVQTGGSLRLSCTASGSIGSISVMGWYRQVPGTQYELVAGISRGGSTWYEDSVKGRFTISRDNAKNTLYLQMNSLKPEDTGMYYCAGGDYSDRLGSWGQGTQVTVSS
notes: as the VHH of m1: NbLumSyt1, clone 1F12; PDB 8B8I chain A; Held on GFP Selector beads in the immunoprecipitation; detected with anti-GFP in the uptake assay; also called GFP tagged Nanobody; GFP-tagged nanobody; source: E. coli NEB SHuffle Express T7, purified (Ni-NTA, protease elution, MonoQ)
Does B1 bind [1]?
Result: binds

B2: NbLumSyt1-pHluorin (VHH)
VHH: EVQLVESGGGLVQTGGSLRLSCTASGSIGSISVMGWYRQVPGTQYELVAGISRGGSTWYEDSVKGRFTISRDNAKNTLYLQMNSLKPEDTGMYYCAGGDYSDRLGSWGQGTQVTVSS
notes: as the VHH of m1: NbLumSyt1, clone 1F12; PDB 8B8I chain A; Detected with anti-GFP after fixation in the human neuron uptake; also called pHluorin-labelled Syt1 nanobody; Syt1 pHluorin Nb; source: E. coli NEB SHuffle Express T7, purified (Ni-NTA, protease elution, MonoQ)
Does B2 bind [2]?
Result: binds

B3: NbLumSyt1-APEX2 (VHH)
VHH: EVQLVESGGGLVQTGGSLRLSCTASGSIGSISVMGWYRQVPGTQYELVAGISRGGSTWYEDSVKGRFTISRDNAKNTLYLQMNSLKPEDTGMYYCAGGDYSDRLGSWGQGTQVTVSS
notes: as the VHH of m1: NbLumSyt1, clone 1F12; PDB 8B8I chain A; also called Nb-APEX2
Does B3 bind [3]?
Result: binds
